Assay results as given in patent US20190062394A1.
Values belong to the molecule of their own block, whether it stands above or below them.

Tests used:
[1] = system: Destabilized IL-12 #2
[2] = system: Destabilized IL-12 #5
[3] = system: Destabilized IL-12 #4
[4] = molecular target: Destabilized IL-12 #2; experiment: cell-based or functional assay
[5] = molecular target: Destabilized IL-12 #5; experiment: cell-based or functional assay
[6] = molecular target: T1, Destabilized IL-12 #21
T1 chain: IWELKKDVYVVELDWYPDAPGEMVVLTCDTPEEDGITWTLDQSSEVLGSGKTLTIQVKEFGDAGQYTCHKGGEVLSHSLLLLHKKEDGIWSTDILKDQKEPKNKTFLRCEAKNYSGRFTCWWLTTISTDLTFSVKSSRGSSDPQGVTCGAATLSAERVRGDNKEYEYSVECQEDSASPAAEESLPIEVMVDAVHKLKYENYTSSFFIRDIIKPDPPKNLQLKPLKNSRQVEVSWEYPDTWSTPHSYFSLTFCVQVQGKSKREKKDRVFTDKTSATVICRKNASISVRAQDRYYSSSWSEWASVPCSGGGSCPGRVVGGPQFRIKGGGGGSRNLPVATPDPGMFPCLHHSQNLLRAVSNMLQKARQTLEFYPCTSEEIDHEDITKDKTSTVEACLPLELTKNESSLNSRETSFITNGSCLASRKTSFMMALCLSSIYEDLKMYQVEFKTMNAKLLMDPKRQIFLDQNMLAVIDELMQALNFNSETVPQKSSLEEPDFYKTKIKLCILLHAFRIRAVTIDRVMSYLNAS

[7] = molecular target: T2, Destabilized IL-12 #12
T2 chain: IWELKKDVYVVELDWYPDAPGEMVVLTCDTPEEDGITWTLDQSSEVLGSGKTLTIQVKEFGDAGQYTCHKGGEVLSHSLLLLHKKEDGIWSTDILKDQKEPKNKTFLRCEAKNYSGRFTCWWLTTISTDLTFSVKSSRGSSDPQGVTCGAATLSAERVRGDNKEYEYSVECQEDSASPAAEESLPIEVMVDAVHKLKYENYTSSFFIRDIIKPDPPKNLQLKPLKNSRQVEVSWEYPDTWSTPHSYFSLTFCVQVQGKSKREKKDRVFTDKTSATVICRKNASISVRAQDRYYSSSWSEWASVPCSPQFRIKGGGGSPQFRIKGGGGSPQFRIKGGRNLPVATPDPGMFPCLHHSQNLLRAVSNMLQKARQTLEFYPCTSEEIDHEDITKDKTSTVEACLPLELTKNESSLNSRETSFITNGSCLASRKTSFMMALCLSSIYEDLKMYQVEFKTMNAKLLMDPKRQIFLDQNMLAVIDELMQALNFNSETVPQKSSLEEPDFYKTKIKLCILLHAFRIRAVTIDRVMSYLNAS

[8] = molecular target: T3, Destabilized IL-12 #27
T3 chain: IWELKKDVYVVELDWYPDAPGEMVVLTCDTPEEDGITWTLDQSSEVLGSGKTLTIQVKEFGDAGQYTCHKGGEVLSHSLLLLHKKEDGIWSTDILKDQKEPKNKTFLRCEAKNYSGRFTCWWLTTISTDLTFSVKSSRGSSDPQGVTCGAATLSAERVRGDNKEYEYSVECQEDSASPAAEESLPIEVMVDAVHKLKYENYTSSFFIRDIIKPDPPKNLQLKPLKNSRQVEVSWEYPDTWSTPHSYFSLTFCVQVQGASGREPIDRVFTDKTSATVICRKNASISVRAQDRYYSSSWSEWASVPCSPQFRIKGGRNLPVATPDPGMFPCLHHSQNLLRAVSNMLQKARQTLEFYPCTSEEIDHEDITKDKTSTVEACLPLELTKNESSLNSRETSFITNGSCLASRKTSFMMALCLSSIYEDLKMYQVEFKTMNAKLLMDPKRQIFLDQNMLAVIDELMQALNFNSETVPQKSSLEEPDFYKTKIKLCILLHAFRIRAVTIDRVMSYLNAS

[9] = molecular target: T4, Destabilized IL-12 #18
T4 chain: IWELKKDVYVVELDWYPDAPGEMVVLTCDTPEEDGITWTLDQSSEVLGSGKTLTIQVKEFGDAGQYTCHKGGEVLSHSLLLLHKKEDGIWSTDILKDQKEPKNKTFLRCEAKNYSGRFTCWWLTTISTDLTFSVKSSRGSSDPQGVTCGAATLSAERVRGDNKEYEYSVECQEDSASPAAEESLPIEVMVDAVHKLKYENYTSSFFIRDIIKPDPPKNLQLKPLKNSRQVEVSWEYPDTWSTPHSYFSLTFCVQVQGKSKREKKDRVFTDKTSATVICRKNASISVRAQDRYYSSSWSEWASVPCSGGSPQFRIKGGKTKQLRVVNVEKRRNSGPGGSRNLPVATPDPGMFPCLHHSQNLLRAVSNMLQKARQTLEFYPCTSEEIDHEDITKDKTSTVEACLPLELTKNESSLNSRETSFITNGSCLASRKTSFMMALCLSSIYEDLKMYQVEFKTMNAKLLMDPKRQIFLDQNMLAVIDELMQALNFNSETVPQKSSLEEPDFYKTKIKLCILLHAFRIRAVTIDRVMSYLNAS

[10] = molecular target: T5, Destabilized IL-12 #11
T5 chain: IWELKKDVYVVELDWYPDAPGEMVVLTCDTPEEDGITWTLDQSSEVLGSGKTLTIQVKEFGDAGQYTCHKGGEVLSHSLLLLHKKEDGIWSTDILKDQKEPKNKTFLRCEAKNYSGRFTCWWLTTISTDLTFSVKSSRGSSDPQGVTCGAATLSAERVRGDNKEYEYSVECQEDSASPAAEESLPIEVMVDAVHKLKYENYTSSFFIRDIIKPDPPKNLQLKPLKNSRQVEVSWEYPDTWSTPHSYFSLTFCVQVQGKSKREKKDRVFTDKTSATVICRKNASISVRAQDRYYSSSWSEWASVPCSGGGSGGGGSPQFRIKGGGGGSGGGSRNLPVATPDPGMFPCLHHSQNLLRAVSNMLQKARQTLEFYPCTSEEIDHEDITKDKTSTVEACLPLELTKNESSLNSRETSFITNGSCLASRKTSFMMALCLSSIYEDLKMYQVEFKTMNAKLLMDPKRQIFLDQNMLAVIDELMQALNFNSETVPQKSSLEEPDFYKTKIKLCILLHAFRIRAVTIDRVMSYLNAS

Chain of Destabilized IL-12 #4 (chain, as listed by the source): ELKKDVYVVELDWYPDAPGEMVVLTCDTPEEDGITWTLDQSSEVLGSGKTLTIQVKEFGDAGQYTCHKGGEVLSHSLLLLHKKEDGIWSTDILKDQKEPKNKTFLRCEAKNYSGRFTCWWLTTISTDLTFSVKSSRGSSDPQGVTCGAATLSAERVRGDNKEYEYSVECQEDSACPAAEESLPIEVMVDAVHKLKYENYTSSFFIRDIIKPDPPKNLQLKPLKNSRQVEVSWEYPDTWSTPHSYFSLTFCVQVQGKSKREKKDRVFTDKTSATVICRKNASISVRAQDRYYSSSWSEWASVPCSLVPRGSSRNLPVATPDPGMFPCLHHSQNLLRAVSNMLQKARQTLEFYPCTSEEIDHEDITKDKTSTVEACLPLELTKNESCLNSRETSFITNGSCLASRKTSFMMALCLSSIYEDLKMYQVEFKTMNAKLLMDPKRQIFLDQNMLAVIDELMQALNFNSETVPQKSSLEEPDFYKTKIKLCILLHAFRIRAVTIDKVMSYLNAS

Molecule: thrombin
fold reduction in biological activity (NK-92 assay) after thrombin digestion, against wild-type single chain IL-12 [1]: (~11 fold decrease*) | thrombin cleavage (67 U/mL, 20 hours, 37 degrees C), anti-p35 immunoblot, reducing conditions [1]: Under reducing conditions, thrombin cleavage of all three IL-12 mutants was detected | thrombin cleavage (67 U/mL, 20 hours, 37 degrees C), anti-p40 immunoblot, reducing conditions [1]: Under reducing conditions, thrombin cleavage of all three IL-12 mutants was detected | fold reduction in biological activity (NK-92 assay) after thrombin digestion, against wild-type single chain IL-12 [2]: (~9 fold decrease*) | thrombin cleavage (67 U/mL, 20 hours, 37 degrees C), anti-p35 immunoblot, reducing conditions [2]: Under reducing conditions, thrombin cleavage of all three IL-12 mutants was detected | thrombin cleavage (67 U/mL, 20 hours, 37 degrees C), anti-p40 immunoblot, reducing conditions [2]: Under reducing conditions, thrombin cleavage of all three IL-12 mutants was detected | fold reduction in biological activity (NK-92 assay) after thrombin digestion, against wild-type single chain IL-12 [3]: (~1.5 fold decrease*) | thrombin cleavage (67 U/mL, 20 hours, 37 degrees C), anti-p35 immunoblot, non-reducing conditions [3]: under non-reducing conditions, thrombin cleavage of Destabilized #4 was not detected | thrombin cleavage (67 U/mL, 20 hours, 37 degrees C), anti-p35 immunoblot, reducing conditions [3]: Under reducing conditions, thrombin cleavage of all three IL-12 mutants was detected | thrombin cleavage (67 U/mL, 20 hours, 37 degrees C), anti-p40 immunoblot, non-reducing conditions [3]: under non-reducing conditions, thrombin cleavage of Destabilized #4 was not detected | thrombin cleavage (67 U/mL, 20 hours, 37 degrees C), anti-p40 immunoblot, reducing conditions [3]: Under reducing conditions, thrombin cleavage of all three IL-12 mutants was detected

thrombin dose needed to reduce IFNg secretion of NK-92 cells (HTRF) [4]: 10 U/mL | thrombin dose needed to reduce IFNg secretion of NK-92 cells (HTRF) [5]: 10 U/mL
Molecule: thrombin (enzyme)

B1: human Plasmin (23.3 Units/mg; Millipore) (protein)
chain: KVYLSECKTGNGKNYRGTMSKTKNGITCQKWSSTSPHRPRFSPATHPSEGLEENYCRNPDNDPQGPWCYTTDPEKRYDYCDILECEEECMHCSGENYDGKISKTMSGLECQAWDSQSPHAHGYIPSKFPNKNLKKNYCRNPDRELRPWCFTTDPNKRWELCDIPRCTTPPPSSGPTYQCLKGTGENYRGNVAVTVSGHTCQHWSAQTPHTHNRTPENFPCKNLDENYCRNPDGKRAPWCHTTNSQVRWEYCKIPSCDSSPVSTEQLAPTAPPELTPVVQDCYHGDGQSYRGTSSTTTTGKKCQSWSSMTPHRHQKTPENYPNAGLTMNYCRNPDADKGPWCFTTDPSVRWEYCNLKKCSGTEASVVAPPPVVLLPDVETPSEEDCMFGNGKGYRGKRATTVTGTPCQDWAAQEPHRHSIFTPETNPRAGLEKNYCRNPDGDVGGPWCYTTNPRKLYDYCDVPQCAAPSFDCGKPQVEPKKCPGRVVGGCVAHPHSWPWQVSLRTRFGMHFCGGTLISPEWVLTAAHCLEKSPRPSSYKVILGAHQEVNLEPHVQEIEVSRLFLEPTRKDIALLKLSSPAVITDKVIPACLPSPNYVVADRTECFITGWGETQGTFGAGLLKEAQLPVIENKVCNRYEFLNGRVQSTELCAGHLAGGTDSCQGDSGGPLVCFEKDKYILQGVTSWGLGCARPNKPGVYVRVSRFVTWIEGVMRNN
proteolytic digestion, 1 hour, reducing SDS-PAGE and anti-p40 Western blot [6]: Partial digestion of DSIL-12#11, DSIL-12#12, DSIL-12#21 and DSIL-12#18 was detected with as little as 0.05 mU of plasmin | proteolytic digestion, 1 hour, reducing SDS-PAGE and anti-p40 Western blot [7]: Partial digestion of DSIL-12#11, DSIL-12#12, DSIL-12#21 and DSIL-12#18 was detected with as little as 0.05 mU of plasmin | proteolytic digestion, 1 hour, reducing SDS-PAGE and anti-p40 Western blot [8]: 2.5 mU of plasmin were required for partial digestion of DSIL-12#27 | proteolytic digestion, 1 hour, reducing SDS-PAGE and anti-p40 Western blot [9]: Partial digestion of DSIL-12#11, DSIL-12#12, DSIL-12#21 and DSIL-12#18 was detected with as little as 0.05 mU of plasmin | proteolytic digestion, 1 hour, reducing SDS-PAGE and anti-p40 Western blot [10]: Partial digestion of DSIL-12#11, DSIL-12#12, DSIL-12#21 and DSIL-12#18 was detected with as little as 0.05 mU of plasmin
